Measurements from patent US20040229797A1.

Target: HA-tagged Filamin 1 (HA-Filamin 1)
Assay: cell-based or functional assay

## S-FILIP (short form Filamin-interacting protein) (from UniProt Q8K4T4 248-965)
  relative amount of recombinant Filamin 1 and GFP: 1.8
